Reference: patent US20160051652A1 (INTERNATIONAL INSTITUTE OF CANCER IMMUNOLOGY, published 2016)

T1: human HLA-A*0201 molecule (human, UniProt P04439 25-302 at identity 0.94))
T1 construct: whole, on cells; MHC class I molecule on the surface of T2-0201 cells; also called HLA-A0201 class I molecule
T1 MHC heavy: not shown

B1: eEF2671-679 peptide (peptide)
peptide: YLNEIKDSV
notes: Synthesized 9-residue peptide of eEF2; also called candidate peptide number 4
B2: eEF2284-292 peptide (peptide)
peptide: KLPRTFCQL
notes: Synthesized 9-residue peptide of eEF2; also called candidate peptide number 7
B3: eEF2292-300 2L peptide (peptide)
peptide: LLLDPIFKV
notes: Modified-type peptide
B4: eEF2292-300 2M9L peptide (peptide)
peptide: LMLDPIFKL
notes: Modified-type peptide
B5: eEF2292-300 2L9L peptide (peptide)
peptide: LLLDPIFKL
notes: Modified-type peptide
B6: eEF2292-300 2M peptide (peptide)
peptide: LMLDPIFKV
notes: Modified-type peptide
B7: eEF2292-300 peptide (peptide)
peptide: LILDPIFKV
notes: Synthesized 9-residue peptide of eEF2; also called candidate peptide number 1
B8: eEF2519-527 peptide (peptide)
peptide: KLVEGLKRL
notes: Synthesized 9-residue peptide of eEF2; also called candidate peptide number 3
B9: eEF2394-402 peptide (peptide)
peptide: LMMYISKMV
notes: Synthesized 9-residue peptide of eEF2; also called candidate peptide number 6
B10: eEF2739-747 peptide (peptide)
peptide: RLMEPIYLV
notes: Synthesized 9-residue peptide of eEF2; also called candidate peptide number 2
B11: eEF2661-669 peptide (peptide)
peptide: ILTDITKGV
notes: Synthesized 9-residue peptide of eEF2; also called candidate peptide number 5

Columns and labels:
[1] = target: T1, human HLA-A*0201 molecule; experiment: MHC stabilization assay, T2-0201 cells, flow cytometry of surface HLA-A0201 (non-peptide 275.7)
Text: (§1) Next, a binding ability to an HLA-A0201 molecule was actually analyzed by an MHC stabilization assay.

[2] = target: T1, human HLA-A*0201 molecule; experiment: binding assay (stabilization assay), T2-0201 cells, flow cytometry (non-peptide 84.50)
Text: as §1

[3] = target: T1, human HLA-A*0201 molecule; experiment: binding assay (stabilization assay), T2-0201 cells, flow cytometry
Text: as §1

[4] = target: T1, human HLA-A*0201 molecule; experiment: MHC stabilization assay, T2-0201 cells, flow cytometry of surface HLA-A0201
Text: as §1

Binder | MFI [1] | MIF [2] | other results
B1 | 523 |  | 
B2 | 449 |  | 
B3 |  | 339 | 
B4 |  | 275 | 
B5 |  | 319 | 
B6 |  | 313 | 
B7 | 781 | 312 | % MIF increase [3]: 269%; % MFI increase [4]: 183%
B8 | 438 |  | 
B9 | 448 |  | 
B10 | 665 |  | 
B11 | 828 |  | 
